For orientation: EC50 means the concentration that produces a half-maximal response.

One molecule from patent US20180326084A1 can be followed below.

For test [1], the target named is human AXL (full length) (human) (UniProt P30530). Briefly: flow cytometry, A431 cells pre-incubated with 10 µg/mL Gas6 (competitor); value less accurate due to low binding.
Test [2] has the same target. Nature of the test: flow cytometry, A431 cells, no Gas6.
The target is the same in test [3]. Briefly: flow cytometry, A431 cells pre-incubated with 10 µg/mL Gas6 (competitor). (A flow cytometer gives signals particle by particle.)

B1: IgG1-YW327.6S2 (antibody, from another filing, V domains shown)
VH: EVQLVESGGGLVQPGGSLRLSCAASGFSLSGSWIHWVRQAPGKGLEWVGWINPYRGYAYYADSVKGRFTISADTSKNTAYLQMNSLRAEDTAVYYCAREYSGWGGSSVGYAMDYWGQGTLVTVSS
VL: DIQMTQSPSSLSASVGDRVTITCRASQDVSTAVAWYQQKPGKAPKLLIYSASFLYSGVPSRFSGSGSGTDFTLTISSLQPEDFATYYCQQSYTTPPTFGQGTKVEIK
For B1, the EC50 in test [1] turned out to be 1.9 µg/mL. The EC50 in test [2] amounted to 0.09 µg/mL. Moreover, in test [3], the fold change of EC50 after Gas6 pre-incubation against no Gas6 is 21 fold, the maximal binding in presence of Gas6 (% of binding in absence of Gas6) came out at 41% and the maximal binding in presence of Gas6 (% of binding without Gas6) worked out at 19%.
